In the assay the target is S3–4 single-chain TCR variant (scTv) of the A6 TCR. Description: SPR.

Substance “Tax P6A variant presented by HLA-A2 (from UniProt P61769) (peptide-MHC)” gave a dissociation constant (Kd) of 5 µM.

The values above are taken from publication PMC7642186.
